{
  "source": "paper PMC3619129",
  "molecular_target": "F-actin (human (endogenous in T cells)) (UniProt P60709)",
  "data": [
    {"substance": "T567D ezrin-EGFP (from UniProt P15311 1-586) (natural protein)", "values": [
      {"measurement": "mobile fraction (MF) of the EGFP-tagged ezrin by FRAP in human T cells, no pretreatment, with SDF-1", "result": 0.18},
      {"measurement": "mobile fraction (MF) of the EGFP-tagged ezrin by FRAP in human T cells, no pretreatment, without SDF-1", "result": 0.25},
      {"measurement": "mobile fraction (MF) of the EGFP-tagged ezrin by FRAP in human T cells, pretreated with latrunculin A (1 μM, 30 min), with SDF-1", "result": 0.81},
      {"measurement": "mobile fraction (MF) of the EGFP-tagged ezrin by FRAP in human T cells, pretreated with latrunculin A (1 μM, 30 min), without SDF-1", "result": 0.72}
    ]},
    {"substance": "wild type (WT) ezrin-EGFP (from UniProt P15311 1-586) (natural protein)", "values": [
      {"measurement": "mobile fraction (MF) of the EGFP-tagged ezrin by FRAP in human T cells, no pretreatment, with SDF-1", "result": 0.64},
      {"measurement": "mobile fraction (MF) of the EGFP-tagged ezrin by FRAP in human T cells, no pretreatment, without SDF-1", "result": 0.74},
      {"measurement": "mobile fraction (MF) of the EGFP-tagged ezrin by FRAP in human T cells, pretreated with latrunculin A (1 μM, 30 min), with SDF-1", "result": 0.79},
      {"measurement": "mobile fraction (MF) of the EGFP-tagged ezrin by FRAP in human T cells, pretreated with latrunculin A (1 μM, 30 min), without SDF-1", "result": 0.81}
    ]}
  ]
}
